The text below walks through data of the supplement of paper PMC10567573.

The series can be described thus: protein stability index of a GFP-peptide fusion (GPS, HEK-293T) (PSI 1-6); higher = more stable. The following applies: c terminus: a fixed tail appended.

± gives the standard deviation.
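Also: 24-mer peptide tiles fused after GFP, lentivirally expressed, FACS-sorted into six equal bins by GFP/DsRed ratio, decoded by Illumina sequencing, PSI is the read-weighted mean bin number.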

Regarding AAEYHAQRLKAVIVIQTYYRQWHA [IQUB], the protein stability index came to 4.97 ± 0.25 (treatment: DMSO) and 4.88 ± 0.32 (treatment: MLN4924 1 uM, 8 h).

AAGEQLQQQHVSCQVFPERLAQGN [ATP23]: the protein stability index is, setting by setting: (treatment: DMSO) 4.47 ± 0.15; (treatment: MLN4924 1 uM, 8 h) 4.5 ± 0.28.

As to AAGVFSNPAVRTAAANAAAGAAEN [SCAMP3], the protein stability index came out at 5.03 ± 0.1 (treatment: DMSO) and 5.06 ± 0.23 (treatment: MLN4924 1 uM, 8 h).

On to AALHIDLCKATSPADALQYLLQFA [INTS4], for which the protein stability index was determined as 2.36 ± 0.51 (treatment: DMSO) and 2.29 ± 0.15 (treatment: MLN4924 1 uM, 8 h).

As for AAPAAKTRKQAAKKVAPLMAKAIR [ELOA2], the protein stability index runs as follows: (treatment: DMSO) 3.78 ± 0.24; (treatment: MLN4924 1 uM, 8 h) 4.16 ± 0.21.

AAPPPLKDDPEGDRDGCVITKVLL [ZBED3]: the protein stability index is 3.62 ± 0.27 (treatment: DMSO) and 3.62 ± 0.27 (treatment: MLN4924 1 uM, 8 h).

Regarding AAVVHHFESFPAGSTLIFYKYCDH [TOR1AIP2], the protein stability index (treatment: DMSO) stood at 2.37 ± 0.43 and the protein stability index (treatment: MLN4924 1 uM, 8 h) worked out at 2.23 ± 0.52.

Regarding ADDHRYKFADNKWSVTGKAEPAMP [TBX5], the protein stability index is, setting by setting: (treatment: DMSO) 4.04 ± 0.17; (treatment: MLN4924 1 uM, 8 h) 4.2 ± 0.15.

As for ADFKGVLQRPSYKFFFKSMDDDFG [DVL3], the protein stability index reads like this: (treatment: DMSO) 2.5 ± 0.28; (treatment: MLN4924 1 uM, 8 h) 2.67 ± 0.11.

ADNMEFEQCIKLWLHALHLRQKGN [FEM1B]: the protein stability index is, setting by setting: (treatment: DMSO) 2.56 ± 0.15; (treatment: MLN4924 1 uM, 8 h) 2.72 ± 0.2.

AEKRQIGDQEGPRPARSTLDELLG [FBF1]: the protein stability index reads like this: (treatment: DMSO) 4.64 ± 0.22; (treatment: MLN4924 1 uM, 8 h) 4.93 ± 0.1.

Regarding AELLKANEIIKKLQGDLKTLMGKL [SASS6], the protein stability index (treatment: DMSO) is 2.36 ± 0.59 and the protein stability index (treatment: MLN4924 1 uM, 8 h) stood at 3.44 ± 0.66.

As to AEREALQARLRDVSRREGALGWAP [ZBED3], the protein stability index runs as follows: (treatment: DMSO) 4.04 ± 0.13; (treatment: MLN4924 1 uM, 8 h) 3.92 ± 0.17.

Sequence AESKGTGREKPGPLDFEAYSAAAL [FCHO1] displayed a protein stability index (treatment: DMSO) of 4.8 ± 0.12 and a protein stability index (treatment: MLN4924 1 uM, 8 h) of 5.04 ± 0.22.

On to AFCNGQKLQVSQQEDITKSLLVTE [IMPA1], for which the protein stability index reads like this: (treatment: DMSO) 3.69 ± 0.12; (treatment: MLN4924 1 uM, 8 h) 3.73 ± 0.27.

As to AFPAAVSSMKKFCRPLLPSCTTRL [PSD2], the protein stability index stood at 2.33 ± 0.27 (treatment: DMSO) and 2.32 ± 0.093 (treatment: MLN4924 1 uM, 8 h).

For the sequence AGGGSQENLDNDTETDSLVSAQRE [DVL3], the protein stability index runs as follows: (treatment: DMSO) 5.32 ± 0.21; (treatment: MLN4924 1 uM, 8 h) 5.65 ± 0.36.

Take AGNSTSGSRAGASSFSDPFFVVET [KCNA3]: the protein stability index (treatment: DMSO) was 3.75 ± 0.15 and the protein stability index (treatment: MLN4924 1 uM, 8 h) came to 3.58 ± 0.27.

Take AIALANSDSMHIEDVEAVQKLQDV [ESRRG]: the protein stability index reads like this: (treatment: DMSO) 4.53 ± 0.092; (treatment: MLN4924 1 uM, 8 h) 4.66 ± 0.15.

The sequence AIDMFIIGATFTDWFTSYVKNVVS [FBXO3] registered a protein stability index (treatment: DMSO) of 2.82 ± 0.35.

In the case of AKIRAKIPGTGALASAAAAVSGSK [RTN2], the protein stability index by setting is: (treatment: DMSO) 4.3 ± 0.15; (treatment: MLN4924 1 uM, 8 h) 4.64 ± 0.34.

On to AKVKGEKLDKKLKKMEQNKTAATR [ATF4], for which the protein stability index by setting is: (treatment: DMSO) 4.88 ± 0.39; (treatment: MLN4924 1 uM, 8 h) 4.85 ± 0.16.

ALCATDVKFISNPPSMVAAGSVVA [CCND1]: the protein stability index is 2.86 ± 0.28 (treatment: DMSO) and 3 ± 0.23 (treatment: MLN4924 1 uM, 8 h).

As for ALLLGQGANINAQTEETQETALTL [ANKRD17], the protein stability index by setting is: (treatment: DMSO) 4.17 ± 0.32; (treatment: MLN4924 1 uM, 8 h) 4.32 ± 0.27.

ALVRLRETEEMLGKKQEYLENRIQ [CHMP4C] registered a protein stability index (treatment: DMSO) of 3.02 ± 0.46 and a protein stability index (treatment: MLN4924 1 uM, 8 h) of 3.35 ± 0.2.

Regarding AMDNHSDSEEELAAFCPQLDDSTV [RETREG3], the protein stability index amounted to 5.34 ± 0.23 (treatment: DMSO) and 5.4 ± 0.14 (treatment: MLN4924 1 uM, 8 h).

AMETDGPLFEDVQMLRKTVKDEAH [PPP2R5C]: the protein stability index came to 5.24 ± 0.49 (treatment: DMSO) and 5.12 ± 0.39 (treatment: MLN4924 1 uM, 8 h).

With APTADDDDDDHDDHEDNDKMNDSE [NOL4L], the protein stability index by setting is: (treatment: DMSO) 5.53 ± 0.2; (treatment: MLN4924 1 uM, 8 h) 5.54 ± 0.28.

On to APTSTCRTSVGVAVLGGFLYAVGG [KLHL20], for which the protein stability index amounted to 3.02 ± 0.94 (treatment: DMSO) and 2.71 ± 1.2 (treatment: MLN4924 1 uM, 8 h).

For AQLYTLWVTFQVLLYTSLPDFCHK [DHCR7], the protein stability index came out at 2.88 ± 0.13 (treatment: DMSO) and 3.13 ± 0.18 (treatment: MLN4924 1 uM, 8 h).

Consider ARAFAEKNGLSFIETSALDSTNVE [RAB11A], for which the protein stability index reads like this: (treatment: DMSO) 4.28 ± 0.41; (treatment: MLN4924 1 uM, 8 h) 4.24 ± 0.44.

As for ARDCFATGRHYWEVDVQEAGAGWW [TRIM14], the protein stability index reads like this: (treatment: DMSO) 2.42 ± 0.22; (treatment: MLN4924 1 uM, 8 h) 2.41 ± 0.3.

Take ARQLQLSDPQTVAGAFGYFQQDTK [LPCAT4]: the protein stability index stood at 3.82 ± 0.41 (treatment: DMSO) and 3.9 ± 0.16 (treatment: MLN4924 1 uM, 8 h).

As for ARSIAEQAHELAYDPNYMSPFAQF [PPTC7], the protein stability index was 2.91 ± 0.35 (treatment: DMSO) and 3.08 ± 0.27 (treatment: MLN4924 1 uM, 8 h).

On to ASAQKFSSRSTVPTPAKRRSSALW [NET1], for which the protein stability index runs as follows: (treatment: DMSO) 3.41 ± 0.039; (treatment: MLN4924 1 uM, 8 h) 3.5 ± 0.33.

For the sequence ASFCVETNNGAGFGLSILWVLLFT [SCAMP3], the protein stability index is 2.86 ± 0.71 (treatment: DMSO) and 2.99 ± 0.12 (treatment: MLN4924 1 uM, 8 h).

Turning to ASLDNGGCALTTFSVLEGEKNNHR [SOAT1], the protein stability index is, setting by setting: (treatment: DMSO) 4.2 ± 0.31; (treatment: MLN4924 1 uM, 8 h) 4.34 ± 0.09.
